Biological target: SARS-CoV-2 glycoprotein S (SARS-CoV-2) (UniProt P0DTC2)
Experiment: cryo-EM structure; in situ cryo-electron tomography on cryo-FIB milled lamellae of chemically fixed infected cells; subtomogram average of 219 S trimers from six tomograms of intracellular virions; C3 symmetry applied after it was revealed without being imposed

Q: With “SARS-CoV-2 glycoprotein S (from UniProt P0DTC2 14-1273) (natural protein)” as the substance, how does the stoichiometry N read?
A: The stoichiometry N was 3.

Reference: PMC7676268
